Test results from the array DNA melting data of Ke et al..

experiment: melting temperature; melt of duplexes; settings: sodium 0.0675 M; strand 1 µM

Substance	Tm [°C]
CGACGTGCAGCATGTGCTG+CAGCACATATTGCACGTCG (((((((((..((((((((+))))))))..)))))))))	49.1
CGACGTGCGCGATGTGCTG+CAGCACATCGGGCACGTCG ((((((((.((((((((((+)))))))))).))))))))	63.6
CGACGTGCACGATGTGCTG+CAGCACATCACGCACGTCG ((((((((..(((((((((+)))))))))..))))))))	51.9
CGACGTGCTCGATGTGCTG+CAGCACATGTTGCACGTCG ((((((((...((((((((+))))))))...))))))))	49.5
CGACGTGCCTCATGTGCTG+CAGCACATGGCGCACGTCG ((((((((..(((((((((+)))))))))..))))))))	52.5
CGACGTGCTGCATGTGCTG+CAGCACATCTCGCACGTCG ((((((((...((((((((+))))))))...))))))))	49.2
CGACGTGCCCCATGTGCTG+CAGCACATCCCGCACGTCG ((((((((...((((((((+))))))))...))))))))	46.2
CGACGTGCACTATGTGCTG+CAGCACATGCGGCACGTCG ((((((((...((((((((+))))))))...))))))))	43.3
CGACGTGCTCGATGTGCTG+CAGCACATTACGCACGTCG ((((((((...((((((((+))))))))...))))))))	48.6
CGACGTGCAAAATGTGCTG+CAGCACATAGAGCACGTCG ((((((((...((((((((+))))))))...))))))))	48.9
CGACGTGCGGGATGTGCTG+CAGCACATCAAGCACGTCG ((((((((..(((((((((+)))))))))..))))))))	57.6
CGACGTGCACGATGTGCTG+CAGCACATTCAGCACGTCG ((((((((...((((((((+))))))))...))))))))	45.5
CGACGTGCCGTATGTGCTG+CAGCACATAGCGCACGTCG ((((((((..(((((((((+)))))))))..))))))))	52.7
CGACGTGCTGGATGTGCTG+CAGCACATGCTGCACGTCG ((((((((.(.((((((((+)))))))).).))))))))	54.8
CGACGTGCCACATGTGCTG+CAGCACATCAGGCACGTCG (((((((((..((((((((+))))))))..)))))))))	53.2
CGACGTGCTGTATGTGCTG+CAGCACATTTGGCACGTCG ((((((((...((((((((+))))))))...))))))))	50.4
CGACGTGCCAGATGTGCTG+CAGCACATTCCGCACGTCG ((((((((...((((((((+))))))))...))))))))	49.6
CGACGTGCTTAATGTGCTG+CAGCACATCGGGCACGTCG ((((((((...((((((((+))))))))...))))))))	49.1

Substance	Tm [°C]
CGACGTGCGATATGTGCTG+CAGCACATTCGGCACGTCG ((((((((...((((((((+))))))))...))))))))	52.7
CGACGTGCAGTATGTGCTG+CAGCACATGTGGCACGTCG ((((((((...((((((((+))))))))...))))))))	50.4
CGACGTGCATCATGTGCTG+CAGCACATTCTGCACGTCG (((((((((..((((((((+))))))))..)))))))))	50.5
CGACGTGCCTAATGTGCTG+CAGCACATGAAGCACGTCG ((((((((.(.((((((((+)))))))).).))))))))	51
CGACGTGCAAAATGTGCTG+CAGCACATGGAGCACGTCG ((((((((...((((((((+))))))))...))))))))	53.9
CGACGTGCTTAATGTGCTG+CAGCACATGAGGCACGTCG ((((((((.(.((((((((+)))))))).).))))))))	52.7
CGACGTGCATTATGTGCTG+CAGCACATGCCGCACGTCG ((((((((...((((((((+))))))))...))))))))	47.5
CGACGTGCAGTATGTGCTG+CAGCACATCTAGCACGTCG ((((((((...((((((((+))))))))...))))))))	50.8
CGACGTGCTCTATGTGCTG+CAGCACATTTAGCACGTCG (((((((((..((((((((+))))))))..)))))))))	51
CGACGTGCAGTATGTGCTG+CAGCACATATGGCACGTCG ((((((((..(((((((((+)))))))))..))))))))	52.7
CGACGTGCAGCATGTGCTG+CAGCACATCCTGCACGTCG ((((((((((.((((((((+)))))))).))))))))))	53.9
CGACGTGCAGAATGTGCTG+CAGCACATCAGGCACGTCG ((((((((...((((((((+))))))))...))))))))	51.1
CGACGTGCAGAATGTGCTG+CAGCACATATCGCACGTCG ((((((((...((((((((+))))))))...))))))))	50.9
CGACGTGCAGGATGTGCTG+CAGCACATCATGCACGTCG (((((((((.(((((((((+))))))))).)))))))))	60.2
CGACGTGCTATATGTGCTG+CAGCACATGTTGCACGTCG ((((((((.(.((((((((+)))))))).).))))))))	52.6
CGACGTGCTCAATGTGCTG+CAGCACATCCCGCACGTCG ((((((((...((((((((+))))))))...))))))))	48
CGACGTGCCTAATGTGCTG+CAGCACATTTTGCACGTCG ((((((((..(((((((((+)))))))))..))))))))	51.1
CGACGTGCGAAATGTGCTG+CAGCACATCCTGCACGTCG ((((((((...((((((((+))))))))...))))))))	49.5
